Changes are numbered by the printed parent chain. Values joined by “and” are separate entries in the source; they are usually repeats but may differ in a detail not shown here. Equal entries are not always repeated.
B1: TR01H084-E22Hh/none-Hi-Kn010G3/L0011-k0 (antibody, V domains shown)
VH: QVQLVESGGGVVQPGGSLRLSCAASGFTFSNAWMHWVRQAPGKGLEWVAQIKDKSQNYATYYAESVKGRFTISRADSKNSIYLQMNSLKTEDTAVYYCRYVHYAAGYGVDIWGQGTTVTVSS
VL: DIVMTQSPLSLPVTPGEPASISCRSSQPLVHSNRNTYLHWYQQKPGQAPRLLIYKVSNRFSGVPDRFSGSGSGTDFTLKISRVEAEDVGVYYCGQGTQVPYTFGQGTKLEIKR
notes: one-arm
B2: hCE115HA-E22Hh/none-Hi-Kn010G3/L0000-k0 (antibody, human IgG1, kappa, L234A L235A, N297A, V domains shown)
VH: B1 VH with G16R, D53A, Q56N, A75D, I81L, A104G, G106Y, I111A
VL: B1 VL with P28S
notes: one-arm; also called hCE115HA-E22Hh//-Hi-Kn010G3/L0000-k0
B3: TR01H104-E22Hh/none-Hi-Kn010G3/L0011-k0 (antibody, V domains shown)
VH: B1 VH with V11L, G16R, Y62I, A75D, I81L, I111A
VL: B1 VL
notes: one-arm
B4: TR01H107-E22Hh/none-Hi-Kn010G3/L0011-k0 (antibody, V domains shown)
VH: B1 VH with V11L, G16R, Y62Q, A75D, I81L, I111A
VL: B1 VL
notes: one-arm
B5: CE115HA251-E22Hh//-Hi-Kn010G3/L0000-k0 (antibody, human IgG1, kappa, L234A L235A, N297A, V domains shown)
VH: B1 VH with G16R, D53A, Q56N, A75D, I81L, A104Y, A105Y, G106Y, I111A
VL: B1 VL with P28S
notes: one-arm
B6: TR01H100-E22Hh/none-Hi-Kn010G3/L0011-k0 (antibody, V domains shown)
VH: B1 VH with V11L, G16R, T60S, A75D, I81L, I111A
VL: B1 VL
notes: one-arm
B7: TR01H106-E22Hh/none-Hi-Kn010G3/L0011-k0 (antibody, V domains shown)
VH: B1 VH with V11L, G16R, Y62P, A75D, I81L, I111A
VL: B1 VL
notes: one-arm
B8: TR01H090-E22Hh/none-Hi-Kn010G3/L0011-k0 (antibody, V domains shown)
VH: B1 VH with V11L, A75D, I81L, I111A
VL: B1 VL
notes: one-arm
B9: TR01H103-E22Hh/none-Hi-Kn010G3/L0011-k0 (antibody, V domains shown)
VH: B1 VH with V11L, G16R, Y62G, A75D, I81L, I111A
VL: B1 VL
notes: one-arm
B10: hCE115HA-E22stHh/none-Hi-stKn010G3/L0000-k0 (antibody, V domains shown)
VH: B1 VH with G16R, D53A, Q56N, A75D, I81L, A104G, G106Y, I111A
VL: B1 VL with P28S
notes: one-arm
B11: TR01H102-E22Hh/none-Hi-Kn010G3/L0011-k0 (antibody, V domains shown)
VH: B1 VH with V11L, G16R, Y62F, A75D, I81L, I111A
VL: B1 VL
notes: one-arm
B12: TR01H111-E2702GsKsc/none-Hi-E2704sE/L0011-k0 (antibody, V domains shown)
VH: B1 VH with R19K
VL: B1 VL
notes: one-arm
B13: TR01H092-E22Hh/none-Hi-Kn010G3/L0011-k0 (antibody, V domains shown)
VH: B1 VH with V11L, G16R, K67A, A75D, I81L, I111A
VL: B1 VL
notes: one-arm
B14: TR01H100-E2702GsKsc/none-Hi-E2704sE/L0011-k0 (antibody, V domains shown)
VH: B1 VH with V11L, G16R, T60S, A75D, I81L, I111A
VL: B1 VL
notes: one-arm
B15: TR01H096-E22Hh/none-Hi-Kn010G3/L0011-k0 (antibody, V domains shown)
VH: B1 VH with V11L, G16R, T60G, A75D, I81L, I111A
VL: B1 VL
notes: one-arm
B16: TR01H112-E2702GsKsc/none-Hi-E2704sE/L0011-k0 (antibody, V domains shown)
VH: B1 VH with T60Q
VL: B1 VL
notes: one-arm
B17: TR01H108-E22Hh/none-Hi-Kn010G3/L0011-k0 (antibody, V domains shown)
VH: B1 VH with V11L, G16R, Y62T, A75D, I81L, I111A
VL: B1 VL
notes: one-arm
B18: TR01H099-E22Hh/none-Hi-Kn010G3/L0011-k0 (antibody, V domains shown)
VH: B1 VH with V11L, G16R, T60Q, A75D, I81L, I111A
VL: B1 VL
notes: one-arm
B19: TR01H091-E22Hh/none-Hi-Kn010G3/L0011-k0 (antibody, V domains shown)
VH: B1 VH with V11L, G16R, R19K, A75D, I81L, I111A
VL: B1 VL
notes: one-arm
B20: hCE115HAa-E22Hh/none-Hi-Kn010G3/L0000-k0 (antibody, V domains shown)
VH: B1 VH with D53A, Q56N, A75D, I81L, A104G, G106Y, I111A
VL: B1 VL with P28S
notes: one-arm
B21: TR01H095-E22Hh/none-Hi-Kn010G3/L0011-k0 (antibody, V domains shown)
VH: B1 VH with V11L, G16R, T60F, A75D, I81L, I111A
VL: B1 VL
notes: one-arm
B22: TR01H098-E22Hh/none-Hi-Kn010G3/L0011-k0 (antibody, V domains shown)
VH: B1 VH with V11L, G16R, T60P, A75D, I81L, I111A
VL: B1 VL
notes: one-arm
B23: TR01H105-E22Hh/none-Hi-Kn010G3/L0011-k0 (antibody, V domains shown)
VH: B1 VH with V11L, G16R, Y62L, A75D, I81L, I111A
VL: B1 VL
notes: one-arm
B24: TR01H084-E22Hh/none-Hi-Kn010G3/L0201-k0 (antibody, V domains shown)
VH: B1 VH
VL: B1 VL with L29P
notes: one-arm
B25: TR01H109-E22Hh/none-Hi-Kn010G3/L0011-k0 (antibody, V domains shown)
VH: B1 VH with V11L, G16R, Y62V, A75D, I81L, I111A
VL: B1 VL
notes: one-arm
B26: TR01H114-E2702GsKsc/none-Hi-E2704sE/L0011-k0 (antibody, V domains shown)
VH: B1 VH with T60S
VL: B1 VL
notes: one-arm
B27: TR01H110-E2702GsKsc/none-Hi-E2704sE/L0011-k0 (antibody, V domains shown)
VH: B1 VH with G16R, R19K, A75D, I81L, I111A
VL: B1 VL
notes: one-arm
B28: TR01H099-E2702GsKsc/none-Hi-E2704sE/L0011-k0 (antibody, V domains shown)
VH: B1 VH with V11L, G16R, T60Q, A75D, I81L, I111A
VL: B1 VL
notes: one-arm
B29: TR01H097-E22Hh/none-Hi-Kn010G3/L0011-k0 (antibody, V domains shown)
VH: B1 VH with V11L, G16R, T60L, A75D, I81L, I111A
VL: B1 VL
notes: one-arm
B30: TR01H101-E22Hh/none-Hi-Kn010G3/L0011-k0 (antibody, V domains shown)
VH: B1 VH with V11L, G16R, T60V, A75D, I81L, I111A
VL: B1 VL
notes: one-arm
B31: hCE115HA-G1dh//-Hi-Kn010G3/L0000-k0 (antibody, V domains shown)
VH: B1 VH with G16R, D53A, Q56N, A75D, I81L, A104G, G106Y, I111A
VL: B1 VL with P28S
notes: one-arm
B32: TR01H091-E2702GsKsc/none-Hi-E2704sE/L0011-k0 (antibody, V domains shown)
VH: B1 VH with V11L, G16R, R19K, A75D, I81L, I111A
VL: B1 VL
notes: one-arm
B33: TR01H094-E22Hh/none-Hi-Kn010G3/L0011-k0 (antibody, V domains shown)
VH: B1 VH with V11L, G16R, K67S, A75D, I81L, I111A
VL: B1 VL
notes: one-arm
B34: TR01H093-E22Hh/none-Hi-Kn010G3/L0011-k0 (antibody, V domains shown)
VH: B1 VH with V11L, G16R, K67Q, A75D, I81L, I111A
VL: B1 VL
notes: one-arm

Biological target: T1, soluble human CD3 epsilon chain (human, UniProt P07766 23-126)
T1 construct: also called CD3ε
Assay: SPR

T1 sequence (P07766 23-126 limits assumed): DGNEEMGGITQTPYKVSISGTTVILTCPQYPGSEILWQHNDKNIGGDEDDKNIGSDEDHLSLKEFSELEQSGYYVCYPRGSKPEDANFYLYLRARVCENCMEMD

Binder	Kd
B1	19.8 nM
B2	143 nM and 124 nM
B3	82.6 nM
B4	69.1 nM
B5	22.3 nM
B6	62.5 nM
B7	100 nM
B8	69.5 nM
B9	77.2 nM
B10	51.7 nM
B11	85.4 nM
B12	4.91 nM
B13	72.1 nM
B14	11.1 nM
B15	74.7 nM
B16	5.12 nM
B17	69.8 nM

Binder	Kd
B18	77.4 nM
B19	66.7 nM
B20	108 nM
B21	90.9 nM
B22	91.4 nM
B23	69.5 nM
B24	16.5 nM
B25	70.6 nM
B26	4.22 nM
B27	12.6 nM
B28	14.6 nM
B29	87.6 nM
B30	78.7 nM
B31	65 nM
B32	13.9 nM
B33	70 nM
B34	68 nM

Source: patent publication US20250066503A1, “CELL INJURY INDUCING THERAPEUTIC DRUG FOR USE IN CANCER THERAPY” (CHUGAI SEIYAKU KABUSHIKI KAISHA, priority 2016, published 2025)
